The target of assay [1] is T1, human CD73 ECD fused C-terminally to human IgG1 Fc (human, UniProt P21589 27-549, limits assumed).
T1 construct: Expressed in ExpiCHO; also called Hs CD73 ECD; Fc-tagged antigen
T1 sequence: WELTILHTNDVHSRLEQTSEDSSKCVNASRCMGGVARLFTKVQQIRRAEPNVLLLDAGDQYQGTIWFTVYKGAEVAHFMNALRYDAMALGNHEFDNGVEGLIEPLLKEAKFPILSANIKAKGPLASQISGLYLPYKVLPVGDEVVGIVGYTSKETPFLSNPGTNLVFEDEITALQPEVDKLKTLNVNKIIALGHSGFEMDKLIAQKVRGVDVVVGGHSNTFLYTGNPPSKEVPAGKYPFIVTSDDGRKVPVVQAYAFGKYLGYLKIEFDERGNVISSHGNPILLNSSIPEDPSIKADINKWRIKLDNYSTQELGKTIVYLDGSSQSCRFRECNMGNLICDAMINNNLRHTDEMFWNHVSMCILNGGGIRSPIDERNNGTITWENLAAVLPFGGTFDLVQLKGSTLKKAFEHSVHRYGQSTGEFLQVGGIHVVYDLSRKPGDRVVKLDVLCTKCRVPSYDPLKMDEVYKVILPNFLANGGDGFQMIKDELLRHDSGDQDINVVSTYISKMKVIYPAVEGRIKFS
The experiment in a line: SPR, Fc-tagged CD73 ECD captured, Fab injected. As for the experimental part: (§1) Kinetic binding analysis of anti-CD73 mAbs and Fab fragments was performed by Surface Plasmon Resonance (SPR), using a Continuous Flow Microspotter (CFM, Wasatch Microfluidics, Salt Lake City, US) combined with an IBIS MX96 SPR instrument (IBIS Technologies, The Netherlands). CD73 cDNAs coding for the extracellular domains of human and cynomolgus CD73 were synthesized and each cloned into a vector containing a CMV promoter and either a C-terminal 6× histidine sequence (SEQ ID NO: 45) for His-tagged CD73 ECD, or a human IgG1 Fc sequence (AA P101-K330), resulting in fusion of IgG1 Fc C-terminally to the cloned CD73 ECD. The His-tagged and Fc-fusion constructs were transiently expressed using an ExpiCHO™ expression system and purified either by standard Ni-NTA chromatography or standard MabSelect™ SuRe™ procedures, respectively. Anti-CD73 Fab fragments were generated by digesting full-length IgG1 antibodies with GingisKHAN enzyme, using a kit provided by Genovis (Sweden). Affinities of Fab fragments were measured by capturing Fc-tagged antigens on a G-a-hu-IgG Fc SensEye® for 15 minutes using the CFM. After spotting, the SensEye® was positioned in the IBIS MX96 biosensor and immobilized antigens were fixed by SensEye FixIt kit. Kinetic analysis was performed by injecting monomeric Fab fragments at increasing concentrations from 0.8 nM to 300 nM. After each cycle of Fab fragment injection, the surface was regenerated by 10 mM glycine pH 3, 10% glycerol. Fab association was performed for 15 minutes and antigen dissociation was performed for 15 minutes. Affinities of full-length monoclonal antibodies (mAbs) were measured by capturing mAbs on a G-a-hu-IgG Fc SensEye® (Ssens BV, The Netherlands) for 15 minutes using a Continuous Flow Microspotter (CFM, Wasatch Microfluidics, Salt Lake City, US). After spotting, the SensEye was docked in the IBIS MX96 and spotted mAbs were fixed by SensEye FixIt kit (Ssens BV, The Netherlands). Kinetic analysis was performed by applying a kinetic titration series injecting increasing concentrations of His-tagged antigens from 0.16 nM to 10 nM as 2-fold dilutions. The surface was regenerated before the next cycle of cynomolgus antigen injections by 100 mM H₃PO₄, pH 3. MAb association was performed for 15 minutes and antigen dissociation was performed for 45 minutes.

In assay [2] the target is T2, cynomolgus CD73 ECD fused C-terminally to human IgG1 Fc (cynomolgus monkey (Macaca …, UniProt A0A2K5V5U7 27-549)).
T2 construct: also called Cy CD73 ECD; Fc-tagged antigen; not shown: Human IgG1 Fc (printed as AA P101-K330) fused to the C-terminus of the ECD, and any linker
T2 sequence: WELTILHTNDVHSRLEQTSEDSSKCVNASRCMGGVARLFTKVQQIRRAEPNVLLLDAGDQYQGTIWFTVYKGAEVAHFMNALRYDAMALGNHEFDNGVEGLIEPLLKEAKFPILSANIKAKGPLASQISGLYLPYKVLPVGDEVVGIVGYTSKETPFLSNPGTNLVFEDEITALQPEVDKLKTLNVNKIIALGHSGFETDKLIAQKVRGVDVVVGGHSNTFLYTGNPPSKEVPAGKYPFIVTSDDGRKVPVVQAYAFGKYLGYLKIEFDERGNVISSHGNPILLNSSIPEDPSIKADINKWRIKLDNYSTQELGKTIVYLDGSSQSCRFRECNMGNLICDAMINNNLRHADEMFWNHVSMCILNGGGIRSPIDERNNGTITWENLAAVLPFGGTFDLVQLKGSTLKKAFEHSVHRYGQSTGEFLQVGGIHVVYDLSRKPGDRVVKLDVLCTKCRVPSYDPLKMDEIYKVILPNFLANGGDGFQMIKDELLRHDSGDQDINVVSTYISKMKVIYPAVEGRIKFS
Kind of assay: SPR, Fc-tagged CD73 ECD captured, Fab injected. As for the experimental part:
as §1

The target in assay [3] is T3, human CD73 expressed on cells (human, UniProt P21589 27-549).
T3 construct: also called 5'-NT; human CD73 on CHO-S cells
T3 sequence: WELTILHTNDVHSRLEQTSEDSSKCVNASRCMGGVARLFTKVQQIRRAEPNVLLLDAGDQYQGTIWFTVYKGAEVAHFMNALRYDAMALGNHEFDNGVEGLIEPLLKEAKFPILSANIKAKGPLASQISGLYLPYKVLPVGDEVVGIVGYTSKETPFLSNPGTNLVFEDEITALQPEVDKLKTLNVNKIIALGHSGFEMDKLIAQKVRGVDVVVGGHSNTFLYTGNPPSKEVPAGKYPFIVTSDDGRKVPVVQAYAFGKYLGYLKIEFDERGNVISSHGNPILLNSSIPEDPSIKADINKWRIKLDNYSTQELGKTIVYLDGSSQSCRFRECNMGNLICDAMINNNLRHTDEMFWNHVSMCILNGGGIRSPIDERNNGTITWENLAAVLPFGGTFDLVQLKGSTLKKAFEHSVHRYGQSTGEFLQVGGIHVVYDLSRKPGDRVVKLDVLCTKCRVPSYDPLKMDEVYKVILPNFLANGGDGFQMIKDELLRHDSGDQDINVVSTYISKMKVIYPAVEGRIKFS
The experiment in a line: flow cytometry on CHO-S cells transiently expressing human CD73, AF647 anti-human IgG (H+L) secondary, GeoMean. As to the method:
The anti-CD73 antibodies were incubated with the hamster CHO-S cell line transiently expressing human or cynomolgus CD73 for 30 minutes at 4° C. The cells were washed twice and subsequently incubated for an additional 20 minutes with AF647-conjugated secondary anti-human IgG (H+L) antibody. After the washing step, antibody binding was detected using the high-throughput flow cytometer iQue Screener PLUS (Sartorius) measuring the GeoMean of AF647 signal in each well. Every concentration was assayed in triplicate and a 12-point titration curve was generated for each antibody.

Assay [4] concerns the target T4, His-tagged human CD73 ECD (human, UniProt P21589 27-549).
T4 construct: runs as a homodimer of about 124-125 kDa in SEC-MALS; also called CD73-His; CD73-His ECD antigen
T4 sequence: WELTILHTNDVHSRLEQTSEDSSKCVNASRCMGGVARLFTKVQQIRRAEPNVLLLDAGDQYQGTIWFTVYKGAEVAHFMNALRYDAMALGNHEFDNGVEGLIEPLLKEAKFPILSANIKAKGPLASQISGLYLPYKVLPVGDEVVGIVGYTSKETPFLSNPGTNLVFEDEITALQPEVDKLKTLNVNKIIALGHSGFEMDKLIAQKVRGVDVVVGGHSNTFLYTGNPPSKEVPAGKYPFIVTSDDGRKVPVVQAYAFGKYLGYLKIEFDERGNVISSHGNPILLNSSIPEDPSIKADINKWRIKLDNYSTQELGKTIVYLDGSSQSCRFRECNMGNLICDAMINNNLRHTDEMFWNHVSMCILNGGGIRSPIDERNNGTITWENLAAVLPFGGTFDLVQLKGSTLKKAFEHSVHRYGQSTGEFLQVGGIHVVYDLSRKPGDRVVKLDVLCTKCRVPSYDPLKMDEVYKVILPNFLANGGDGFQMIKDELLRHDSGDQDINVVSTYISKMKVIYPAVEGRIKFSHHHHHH
Kind of assay: SEC-MALS, mAb:CD73 1:1. As to the method: (§2) Anti-CD73 antibodies and His-tagged CD73 were analyzed in different ratios as well as individually to analyze the size of complexes formed between CD73 homodimer and anti-CD73 antibodies. Samples were prepared by mixing […] of CD73-His with 900, 450, 90 or 0 μmol of antibody diluted into PBS, pH 7.4. Samples were incubated for 30 min at room temperature followed by separation using a UHPLC UltiMate 3000 (Thermo Scientific) and SEC X-Bridge column (Waters) at a flow rate of 1.2 mL/min. Sample running buffer was 0.01 M Citrate, 250 mM L-Arginine.HCl, pH 6.0. Following HPLC separation, all samples were analyzed using a MiniDAWN TREOS MALS detector (Wyatt) and Optilab T-rEX refractive index detector (Wyatt). Data plots were generated using Graph Pad Prism.

The target in assay [5] is T4, His-tagged human CD73 ECD. The experiment in a line: SEC-MALS, mAb:CD73 0.1:1. As for the experimental part: as §2
Assay [6] deals with T4, His-tagged human CD73 ECD. The experiment in a line: SEC-MALS, mAb:CD73 0.5:1. As to the method: as §2
Assay [7] addresses T5, His-tagged cynomolgus CD73 ECD (cynomolgus monkey (Macaca fascicularis)).
T5 chain: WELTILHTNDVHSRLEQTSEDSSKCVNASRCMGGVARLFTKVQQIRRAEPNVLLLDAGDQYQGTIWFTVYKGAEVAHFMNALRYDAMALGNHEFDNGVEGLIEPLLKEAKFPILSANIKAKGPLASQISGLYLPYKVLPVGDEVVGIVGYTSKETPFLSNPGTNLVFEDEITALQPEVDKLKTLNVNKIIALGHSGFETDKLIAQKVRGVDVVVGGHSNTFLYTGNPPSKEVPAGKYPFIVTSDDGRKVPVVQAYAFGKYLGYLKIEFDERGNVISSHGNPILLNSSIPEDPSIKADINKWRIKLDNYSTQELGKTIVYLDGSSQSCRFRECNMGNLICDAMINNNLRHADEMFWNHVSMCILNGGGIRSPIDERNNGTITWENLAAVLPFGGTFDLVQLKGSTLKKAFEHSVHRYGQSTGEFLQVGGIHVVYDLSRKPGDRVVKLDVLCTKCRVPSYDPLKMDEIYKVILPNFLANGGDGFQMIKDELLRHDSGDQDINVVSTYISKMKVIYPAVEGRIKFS
The experiment in a line: SPR, mAb captured, His-tagged CD73 ECD injected. As for the experimental part: as §1

The target in assay [8] is T4, His-tagged human CD73 ECD. Kind of assay: SPR, mAb captured, His-tagged CD73 ECD injected. As for the experimental part: as §1

B1: 21127 Fab fragment (Fab, V domains shown, not shown: small tags and cut ends)
VH: EVQLVESGGGLVQPGRSLRLSCAASGFTFDDFAMHWVRQAPGKGLEWVSGISWNSGNIGYADSVKGRFTISRDNAKNSLYLQMNSLRAEDTALYYCAKDKSGSPYYYYGMDVWGQGTMVTVSS
VL: DIQMTQSPSSVSASVGDRVTITCRATQGISRRLAWYQQKPGKAPKLLIYAASSLQSGVPSRFSGSGSGTDFTLTISSLQPEDFATYYCQQANSFPLTFGGGTKVEIKR
notes: Made by digesting the full-length IgG1 with GingisKHAN enzyme (Genovis)
As to B1, the equilibrium dissociation constant (Kd) was determined as 54.6 nM in assay [1] and 55.3 nM in assay [2].

B2: antibody 21028 (antibody, human IgG1, kappa, L234A L235A, V domains shown)
VH: EVQLVESGGGLVQPGRSLRLSCAASGFSFDDYAMHWVRQAPGKGLEWVSGISWHSDNIGYADSVKGRFTISRDNAKNSLYLQMNSLRAEDTAFYYCAKDGPRYRGSYYYFDYWGQGTLVTVSS
VL: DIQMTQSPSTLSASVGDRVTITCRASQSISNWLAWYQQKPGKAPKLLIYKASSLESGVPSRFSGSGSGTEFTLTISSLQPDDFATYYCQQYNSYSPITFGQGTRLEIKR
notes: Fully human IgG1-LALA (L234A/L235A), kappa; germline-corrected (Symplex-corrected) variable domains
For B2, the binding result in assay [3] is listed as “binds”.

B3: antibody 21163 (antibody, human IgG1, kappa, L234A L235A, V domains shown)
VH: EVQLVESGGGLVQPGGSLRLSCAASGFSFSTYWMNWVRQAPGKGLEWVANIKQDGSEKYYVDSVKGRFTISRDNAKNSLYLQMNSLRAEDTAVYYCARDISSSWFYYYGMDVWGQGTTVTVSS
VL: DIQLTQSPSFLSASVGDRVTITCRASQGISSYLAWYQQKPGKAPKLLIYAASTLQSGVPSRFSGSGSGTEFTLTISSLQPEDFATYYCQQLNSYPPTFGGGTKVEIKR
notes: Fully human IgG1-LALA (L234A/L235A), kappa
As to B3, the “molecular mass of complex, Peak 2 (MW, kDa)” value in assay [4] was determined as 280 kDa; in assay [5], 279 kDa; in assay [6], 278 kDa. The Kd in assay [7] was 0.66 nM; in assay [8], 0.91 nM. The dissociation rate constant (koff) in assay [7] worked out at 6.2e-05 s⁻¹; in assay [8] it was 5.5e-05 s⁻¹. Further, the kon in assay [7] is 100000 M⁻¹ s⁻¹; in assay [8], 65000 M⁻¹ s⁻¹.

The values are drawn from US20210070876A1 (LES LABORATOIRES SERVIER, published 2021).
